Assay results taken from the supplement of paper PMC10065799, “High-throughput profiling of sequence recognition by tyrosine kinases and SH2 domains using bacterial peptide display” (eLife, 2023).

Experiments:
AncSZ = test: phosphorylation enrichment, bacterial display (enrichment ratio); higher = better substrate or ligand; peptides without Tyr show the background
EPHB1 = EPHB1 (UniProt P54762); test: as above
EPHB2 = EPHB2 (UniProt P29323); test: as above
FGFR1 = FGFR1 (UniProt P11362); test: as above
FGFR3 = FGFR3 (UniProt P22607); test: as above
FGFR3, sequence (P22607 whole entry, looked up): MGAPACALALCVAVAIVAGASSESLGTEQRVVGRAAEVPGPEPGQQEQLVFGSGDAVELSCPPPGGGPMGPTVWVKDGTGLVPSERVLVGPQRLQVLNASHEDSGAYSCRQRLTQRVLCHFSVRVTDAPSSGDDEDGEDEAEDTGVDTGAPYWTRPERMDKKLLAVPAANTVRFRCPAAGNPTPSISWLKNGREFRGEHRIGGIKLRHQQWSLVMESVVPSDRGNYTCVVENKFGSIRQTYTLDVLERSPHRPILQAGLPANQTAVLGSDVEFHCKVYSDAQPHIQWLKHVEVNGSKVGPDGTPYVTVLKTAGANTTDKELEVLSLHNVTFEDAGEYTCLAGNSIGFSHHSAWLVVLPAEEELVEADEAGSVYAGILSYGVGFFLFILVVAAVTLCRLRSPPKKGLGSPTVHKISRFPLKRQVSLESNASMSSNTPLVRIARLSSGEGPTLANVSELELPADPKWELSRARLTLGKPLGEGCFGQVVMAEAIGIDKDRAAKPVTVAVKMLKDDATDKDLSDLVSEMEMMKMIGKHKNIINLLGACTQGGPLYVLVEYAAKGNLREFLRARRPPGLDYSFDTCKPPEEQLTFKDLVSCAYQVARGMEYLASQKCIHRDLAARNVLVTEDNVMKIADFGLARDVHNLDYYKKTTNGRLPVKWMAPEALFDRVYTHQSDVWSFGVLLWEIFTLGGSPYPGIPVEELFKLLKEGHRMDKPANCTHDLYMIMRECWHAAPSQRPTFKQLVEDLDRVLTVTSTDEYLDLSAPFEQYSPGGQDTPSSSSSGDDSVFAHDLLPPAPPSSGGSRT

Fer (mouse) = test: as above
Fes = Fes (UniProt P07332); test: as above
Fes, sequence (P07332 whole entry, looked up): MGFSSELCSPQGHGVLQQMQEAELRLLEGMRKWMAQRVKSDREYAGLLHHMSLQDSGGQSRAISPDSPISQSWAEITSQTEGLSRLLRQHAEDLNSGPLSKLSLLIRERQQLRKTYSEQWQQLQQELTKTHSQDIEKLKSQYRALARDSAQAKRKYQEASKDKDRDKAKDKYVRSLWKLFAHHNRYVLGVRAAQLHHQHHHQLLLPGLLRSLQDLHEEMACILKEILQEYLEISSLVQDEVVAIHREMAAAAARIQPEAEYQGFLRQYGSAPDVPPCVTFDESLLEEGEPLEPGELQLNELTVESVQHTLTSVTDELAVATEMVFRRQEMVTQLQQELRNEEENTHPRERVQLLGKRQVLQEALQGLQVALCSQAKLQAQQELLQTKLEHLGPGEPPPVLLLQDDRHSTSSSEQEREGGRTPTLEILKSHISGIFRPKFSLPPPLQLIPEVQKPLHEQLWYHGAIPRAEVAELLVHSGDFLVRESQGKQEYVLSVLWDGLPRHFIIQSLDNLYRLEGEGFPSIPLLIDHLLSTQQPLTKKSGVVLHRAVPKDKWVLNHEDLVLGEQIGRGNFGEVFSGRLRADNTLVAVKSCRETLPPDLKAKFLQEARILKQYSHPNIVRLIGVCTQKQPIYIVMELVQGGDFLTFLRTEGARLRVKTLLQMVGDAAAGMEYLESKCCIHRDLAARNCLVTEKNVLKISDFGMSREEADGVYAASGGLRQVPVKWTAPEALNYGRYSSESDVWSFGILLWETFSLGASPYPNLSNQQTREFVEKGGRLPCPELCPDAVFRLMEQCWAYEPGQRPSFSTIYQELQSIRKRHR

Fyn = Fyn (UniProt P06241); test: as above
Hck = Hck (UniProt P08631); test: as above
Jak2 = Jak2 (UniProt O60674); test: as above
MERTK = MERTK (UniProt Q12866); test: as above
MERTK, sequence (Q12866 whole entry, looked up): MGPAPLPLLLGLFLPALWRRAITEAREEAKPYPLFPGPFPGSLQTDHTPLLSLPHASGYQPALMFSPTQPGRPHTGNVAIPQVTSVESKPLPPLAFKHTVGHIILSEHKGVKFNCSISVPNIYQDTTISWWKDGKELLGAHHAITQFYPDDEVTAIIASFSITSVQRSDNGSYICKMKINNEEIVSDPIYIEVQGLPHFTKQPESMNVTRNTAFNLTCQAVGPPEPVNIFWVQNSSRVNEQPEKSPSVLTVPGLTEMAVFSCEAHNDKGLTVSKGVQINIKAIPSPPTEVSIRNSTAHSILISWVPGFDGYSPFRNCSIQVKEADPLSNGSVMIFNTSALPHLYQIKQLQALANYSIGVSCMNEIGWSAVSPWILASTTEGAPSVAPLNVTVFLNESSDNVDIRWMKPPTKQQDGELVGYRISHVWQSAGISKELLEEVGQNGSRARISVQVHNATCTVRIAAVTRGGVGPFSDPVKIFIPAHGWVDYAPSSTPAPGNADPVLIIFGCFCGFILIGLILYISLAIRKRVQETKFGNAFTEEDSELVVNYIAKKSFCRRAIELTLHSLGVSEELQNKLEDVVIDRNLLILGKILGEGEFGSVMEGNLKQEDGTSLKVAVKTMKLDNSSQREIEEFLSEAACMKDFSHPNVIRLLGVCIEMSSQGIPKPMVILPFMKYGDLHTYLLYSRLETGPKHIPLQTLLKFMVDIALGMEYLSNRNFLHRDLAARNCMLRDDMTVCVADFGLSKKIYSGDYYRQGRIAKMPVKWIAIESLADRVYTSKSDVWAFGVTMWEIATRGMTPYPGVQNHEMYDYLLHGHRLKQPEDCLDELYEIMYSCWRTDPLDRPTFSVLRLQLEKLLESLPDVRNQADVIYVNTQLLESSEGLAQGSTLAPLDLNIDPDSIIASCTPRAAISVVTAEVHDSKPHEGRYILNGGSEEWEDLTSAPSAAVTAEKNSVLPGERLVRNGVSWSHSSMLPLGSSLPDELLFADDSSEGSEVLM

c-Abl (mouse) = test: as above
c-Src = test: as above
Grb2 SH2 = Grb2 SH2 (UniProt P62993); test: SH2 binding enrichment of the phosphorylated peptide, bacterial display (enrichment ratio); higher = better substrate or ligand; peptides without Tyr show the background
Grb2 SH2, sequence (P62993 whole entry, looked up): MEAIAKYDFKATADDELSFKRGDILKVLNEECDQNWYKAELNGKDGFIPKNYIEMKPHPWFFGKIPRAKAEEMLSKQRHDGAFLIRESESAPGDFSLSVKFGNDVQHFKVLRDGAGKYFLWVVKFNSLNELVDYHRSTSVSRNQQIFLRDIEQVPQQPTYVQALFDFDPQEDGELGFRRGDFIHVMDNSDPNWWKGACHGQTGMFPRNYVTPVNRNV

SHP2-C SH2 = test: as above
c-Src SH2 = test: as above
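For SH2 binding enrichment of the phosphorylated peptide, bacterial display in this document: peptide library displayed on the E. coli surface as eCPX fusions, selected cells deep-sequenced, score is each peptide's frequency after selection divided by its frequency in the input.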
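For phosphorylation enrichment, bacterial display in this document: 11-residue human phosphosite peptides and single-mutation variants displayed on the E. coli surface, counted by deep sequencing, each peptide's frequency after selection divided by its frequency in the unselected input library; frequency after pTyr selection over input frequency; kinase dosed for 20-30% of maximal phosphorylation in three min.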

EPHB1, sequence (P54762 whole entry, looked up): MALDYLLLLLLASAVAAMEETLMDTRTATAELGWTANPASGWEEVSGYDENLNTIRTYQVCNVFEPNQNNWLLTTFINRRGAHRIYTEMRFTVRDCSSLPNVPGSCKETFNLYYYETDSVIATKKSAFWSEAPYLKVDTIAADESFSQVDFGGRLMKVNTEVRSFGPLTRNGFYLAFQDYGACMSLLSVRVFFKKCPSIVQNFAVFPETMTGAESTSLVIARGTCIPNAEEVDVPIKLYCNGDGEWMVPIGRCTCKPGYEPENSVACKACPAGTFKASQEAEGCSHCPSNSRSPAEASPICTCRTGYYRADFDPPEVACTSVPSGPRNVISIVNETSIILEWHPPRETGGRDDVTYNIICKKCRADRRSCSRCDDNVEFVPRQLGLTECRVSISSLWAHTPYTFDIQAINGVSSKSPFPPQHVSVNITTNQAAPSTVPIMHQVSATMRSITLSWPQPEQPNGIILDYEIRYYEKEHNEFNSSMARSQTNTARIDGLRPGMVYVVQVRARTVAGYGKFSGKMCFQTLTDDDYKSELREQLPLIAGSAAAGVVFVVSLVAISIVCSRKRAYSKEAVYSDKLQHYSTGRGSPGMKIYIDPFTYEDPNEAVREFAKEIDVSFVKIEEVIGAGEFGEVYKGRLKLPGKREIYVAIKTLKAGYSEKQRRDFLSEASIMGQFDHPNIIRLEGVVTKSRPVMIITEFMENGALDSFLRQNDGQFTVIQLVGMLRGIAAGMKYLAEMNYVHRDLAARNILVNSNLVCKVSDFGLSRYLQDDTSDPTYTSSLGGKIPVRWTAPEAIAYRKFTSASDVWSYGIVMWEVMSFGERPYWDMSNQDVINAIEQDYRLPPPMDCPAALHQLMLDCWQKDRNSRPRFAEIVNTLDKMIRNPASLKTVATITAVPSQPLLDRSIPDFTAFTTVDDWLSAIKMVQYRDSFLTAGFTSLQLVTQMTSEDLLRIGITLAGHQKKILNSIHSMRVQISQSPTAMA
EPHB2, sequence (P29323 whole entry, looked up): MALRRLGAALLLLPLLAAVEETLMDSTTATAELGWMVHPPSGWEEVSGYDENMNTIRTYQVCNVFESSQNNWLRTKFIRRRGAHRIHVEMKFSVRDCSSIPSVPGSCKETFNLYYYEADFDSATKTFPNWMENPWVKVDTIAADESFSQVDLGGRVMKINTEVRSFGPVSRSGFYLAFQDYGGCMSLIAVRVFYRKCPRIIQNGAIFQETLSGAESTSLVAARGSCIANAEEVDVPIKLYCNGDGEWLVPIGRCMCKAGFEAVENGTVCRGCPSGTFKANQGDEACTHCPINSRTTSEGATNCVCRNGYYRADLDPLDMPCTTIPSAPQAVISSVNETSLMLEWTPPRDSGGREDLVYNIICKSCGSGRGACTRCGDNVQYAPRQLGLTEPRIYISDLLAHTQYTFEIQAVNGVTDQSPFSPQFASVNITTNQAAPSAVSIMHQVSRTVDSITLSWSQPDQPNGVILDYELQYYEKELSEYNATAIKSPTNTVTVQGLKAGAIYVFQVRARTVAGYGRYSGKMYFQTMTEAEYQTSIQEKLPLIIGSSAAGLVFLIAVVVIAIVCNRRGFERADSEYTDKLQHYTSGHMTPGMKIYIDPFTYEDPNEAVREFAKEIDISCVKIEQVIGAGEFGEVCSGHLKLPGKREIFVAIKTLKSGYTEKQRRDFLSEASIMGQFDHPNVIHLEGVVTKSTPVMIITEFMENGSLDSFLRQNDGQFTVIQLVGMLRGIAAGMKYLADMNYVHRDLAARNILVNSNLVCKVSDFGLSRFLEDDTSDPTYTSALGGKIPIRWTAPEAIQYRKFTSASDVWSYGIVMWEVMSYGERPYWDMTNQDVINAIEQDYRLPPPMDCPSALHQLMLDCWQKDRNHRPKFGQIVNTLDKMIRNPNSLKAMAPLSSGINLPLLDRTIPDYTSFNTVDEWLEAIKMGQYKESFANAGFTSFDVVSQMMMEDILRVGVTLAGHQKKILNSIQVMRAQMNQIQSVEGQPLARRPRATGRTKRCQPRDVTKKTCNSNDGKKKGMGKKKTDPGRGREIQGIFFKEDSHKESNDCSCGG

Row | Sequence | phosphorylation enrichment (AncSZ) | phosphorylation enrichment (EPHB1) | phosphorylation enrichment (EPHB2) | phosphorylation enrichment (FGFR1) | phosphorylation enrichment (FGFR3) | phosphorylation enrichment (Fer (mouse)) | phosphorylation enrichment (Fes) | phosphorylation enrichment (Fyn) | phosphorylation enrichment (Hck) | phosphorylation enrichment (Jak2) | phosphorylation enrichment (MERTK) | phosphorylation enrichment (c-Abl (mouse)) | phosphorylation enrichment (c-Src) | SH2 binding enrichment (Grb2 SH2) | SH2 binding enrichment (SHP2-C SH2) | SH2 binding enrichment (c-Src SH2)
1 | NQNIGYKLGHR [KCNN3_Y268] | 0.402 | 0.324 | 0.303 | 0.339 | 0.358 | 0.322 | 0.49 | 0.361 | 0.396 | 0.391 | 0.344 | 0.313 | 0.398 | 1 | 0.782 | 0.481
2 | NRLTDYYEPLL [BBS10_Y536] | 2.64 | 8.92 | 6.55 | 11 | 7.93 | 2.11 | 0.826 | 1.03 | 3.28 | 1.63 | 3.6 | 1.61 | 1.33 | 0.788 | 0.755 | 1.93
3 | NSNSDYVDILP [SH2D1B_Y127_V130I] | 1.85 | 3.31 | 3.01 | 3.99 | 3.11 | 0.682 | 1.22 | 0.514 | 0.623 | 1.09 | 0.6 | 1 | 0.573 | 0.788 | 0.503 | 0.571
4 | NSRYTCKLEVK [USH2A_Y3747_Y3747C] | 1.21 | 0.678 | 0.57 | 0.471 | 0.885 | 0.501 | 1.45 | 0.407 | 0.471 | 1.19 | 0.387 | 0.921 | 0.441 | 0.808 | 0.626 | 0.449
5 | NTDETYSIDNE [TUBB2B_Y200_C201S] | 1.27 | 0.622 | 0.632 | 0.551 | 0.715 | 0.63 | 1.35 | 0.696 | 0.694 | 1.23 | 0.5 | 0.886 | 0.726 | 0.761 | 0.547 | 0.421
6 | NVGGKYSYLKV [GRM3_Y478] | 0.625 | 0.415 | 0.39 | 0.449 | 0.476 | 0.446 | 0.65 | 0.358 | 0.515 | 0.635 | 0.448 | 0.524 | 0.351 | 1.08 | 1.43 | 2.27
7 | NVTRKYSRQIL [MAP3K2_Y463_T464S] | 0.425 | 0.356 | 0.317 | 0.363 | 0.352 | 0.402 | 0.446 | 0.491 | 0.361 | 0.417 | 0.344 | 0.399 | 0.403 | 1.06 | 0.607 | 0.508
8 | NVVHEYSSELE [FGB_Y172_N170H] | 1.02 | 0.544 | 0.656 | 0.472 | 0.705 | 0.519 | 1.1 | 0.436 | 0.481 | 1.02 | 0.473 | 0.987 | 0.649 | 0.908 | 0.637 | 1.48
9 | NWGKKYPTCNS [PTPRZ1_Y53] | 0.771 | 0.507 | 0.558 | 0.459 | 0.603 | 0.485 | 0.978 | 0.523 | 0.463 | 0.85 | 0.43 | 0.839 | 0.435 | 1.06 | 1.03 | 0.787
10 | NYYDTCIKTCL [IQGAP2_Y1445_Y1445C] | 1.3 | 7.47 | 2.32 | 7.57 | 5.45 | 1.05 | 1.07 | 1.52 | 1.51 | 1.17 | 5.87 | 0.894 | 1.16 | 0.856 | 0.706 | 3.21
11 | PADCRYYAFPQ [GAMT_Y222] | 3.91 | 12.1 | 12.2 | 10.9 | 8.15 | 10.4 | 1.7 | 2.3 | 3.84 | 6.5 | 14.4 | 5.14 | 4.71 | 0.898 | 0.847 | 3.02
12 | PDKRIYQFTAA [SKAP2_Y197] | 0.73 | 0.779 | 0.553 | 0.476 | 0.497 | 0.769 | 0.708 | 0.566 | 0.578 | 0.651 | 0.999 | 0.47 | 0.729 | 0.82 | 0.57 | 0.645
13 | PDNEPYIFKVF [PIK3AP1_Y553] | 2.37 | 0.684 | 0.787 | 1.16 | 1.5 | 0.647 | 2.25 | 0.846 | 0.758 | 2.79 | 0.725 | 1.19 | 1.05 | 1.1 | 1 | 0.755
14 | PEADKYRLTFA [FGG_Y300_YF] | 1.05 | 0.887 | 0.697 | 0.626 | 0.78 | 0.546 | 1.18 | 0.553 | 0.76 | 1 | 0.451 | 0.918 | 0.568 | 0.75 | 0.673 | 0.475
15 | PELINCHQHNS [BTK_Y361_Y361C] | 0.938 | 0.676 | 0.9 | 0.682 | 0.7 | 0.56 | 1.04 | 0.297 | 0.544 | 0.971 | 0.712 | 0.876 | 0.69 | 1.01 | 0.919 | 0.641
16 | PELINYHQHNS [BTK_Y361] | 0.981 | 0.666 | 0.769 | 1.27 | 1.02 | 0.664 | 1.06 | 0.648 | 0.69 | 1 | 0.579 | 0.561 | 0.68 | 1 | 0.767 | 0.466
